Experimental data reported in patent publication US10611814 (GEMOAB MONOCLONALS, dated 2020).
Blank lines part the entries; values can stand above or below the binder they belong to.

Legend:
Assay in all cases: cell-based or functional assay
[1] = target: CD123 antigen (UniProt P26951 19-378, limits assumed)
[2] = target: CD33 antigen (UniProt P20138 18-364, limits assumed)
[3] = target: T1, prostate stem cell antigen (UniProt O43653 12-83, limits assumed)
T1 sequence (looked up): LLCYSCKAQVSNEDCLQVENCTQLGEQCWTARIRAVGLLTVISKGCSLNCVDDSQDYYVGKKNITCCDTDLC

[4] = target: prostate membrane antigen (UniProt Q04609 1-750, limits assumed)
Sequence of prostate membrane antigen (Q04609 whole entry): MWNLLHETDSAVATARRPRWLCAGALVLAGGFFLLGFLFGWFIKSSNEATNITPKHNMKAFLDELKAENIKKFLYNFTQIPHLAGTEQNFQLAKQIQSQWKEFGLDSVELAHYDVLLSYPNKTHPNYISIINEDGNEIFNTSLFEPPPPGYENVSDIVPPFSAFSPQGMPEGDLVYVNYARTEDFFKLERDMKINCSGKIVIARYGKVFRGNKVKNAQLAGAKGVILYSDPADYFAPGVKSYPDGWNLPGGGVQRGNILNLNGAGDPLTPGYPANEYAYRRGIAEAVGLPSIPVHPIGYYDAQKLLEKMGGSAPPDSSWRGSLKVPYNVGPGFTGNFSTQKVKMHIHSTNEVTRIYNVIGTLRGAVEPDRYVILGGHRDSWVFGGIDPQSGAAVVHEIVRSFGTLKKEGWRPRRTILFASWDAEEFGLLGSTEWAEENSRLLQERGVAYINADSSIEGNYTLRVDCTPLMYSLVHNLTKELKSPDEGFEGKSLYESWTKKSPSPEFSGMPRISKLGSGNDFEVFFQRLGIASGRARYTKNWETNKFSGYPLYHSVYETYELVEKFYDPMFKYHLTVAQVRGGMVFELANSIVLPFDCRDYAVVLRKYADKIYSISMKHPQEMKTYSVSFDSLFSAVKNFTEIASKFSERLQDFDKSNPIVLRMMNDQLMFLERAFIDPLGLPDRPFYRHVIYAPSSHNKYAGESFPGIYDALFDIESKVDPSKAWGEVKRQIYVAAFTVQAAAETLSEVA

Sequence of CD33 antigen (P20138 18-364 limits assumed): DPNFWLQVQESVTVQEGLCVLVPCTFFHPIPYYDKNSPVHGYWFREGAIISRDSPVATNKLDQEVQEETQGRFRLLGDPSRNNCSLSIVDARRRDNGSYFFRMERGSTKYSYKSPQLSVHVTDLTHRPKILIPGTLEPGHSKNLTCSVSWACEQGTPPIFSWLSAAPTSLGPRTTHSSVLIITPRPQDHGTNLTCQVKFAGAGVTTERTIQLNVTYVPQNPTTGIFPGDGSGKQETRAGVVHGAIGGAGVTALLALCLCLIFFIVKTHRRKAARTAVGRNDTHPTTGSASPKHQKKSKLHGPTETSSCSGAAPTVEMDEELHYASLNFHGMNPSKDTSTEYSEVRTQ
Sequence of CD123 antigen (P26951 19-378 limits assumed): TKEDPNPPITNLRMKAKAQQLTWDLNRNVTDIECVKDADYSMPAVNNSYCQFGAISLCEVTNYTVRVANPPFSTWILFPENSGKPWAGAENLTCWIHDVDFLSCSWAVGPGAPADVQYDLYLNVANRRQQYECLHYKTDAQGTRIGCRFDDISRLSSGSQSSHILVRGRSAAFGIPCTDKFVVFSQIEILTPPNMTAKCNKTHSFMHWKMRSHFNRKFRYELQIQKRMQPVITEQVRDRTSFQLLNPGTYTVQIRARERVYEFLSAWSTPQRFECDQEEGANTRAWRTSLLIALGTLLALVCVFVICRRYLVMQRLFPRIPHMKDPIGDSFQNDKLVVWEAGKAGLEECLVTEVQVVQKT

B1: bi-specific CD33-CD123 target module (bispecific antibody)
chain: DAAQPAEVQLQQSGPELVKPGASVKMSCKASGYTFTDYYMKWVKQSHGKSLEWIGDIIPSNGATFYNQKFKGKATLTVDRSSSTAYMHLNSLTSEDSAVYYCTRSHLLRASWFAYWGQGTLVTVSAASGGGGSGGGGSGGGGSDFVMTQSPSSLTVTAGEKVTMSCKSSQSLLNSGNQKNYLTWYLQKPGQPPKLLIYWASTRESGVPDRFTGSGSGTDFTLTISSVQAEDLAVYYCQNDYSYPYTFGGGTKLEIKAAAKPLPEVTDEYARGQVQLVQSGAEVKKPGASVKVSCKASGYTFTDYVVHWVRQAPGQGLEWMGYINPYNDGTKYNEKFKGRVTMTRDTSISTAYMELSRLRSDDTAVYYCARDYRYEVYGMDYWGQGTLVTVSSGGGGSGGGGSGGGGSDIVLTQSPASLAVSPGQRATITCTASSSVNYIHWYQQKPGQPPKLLIYDTSKVASGVPARFSGSGSGTDFTLTINPVEANDTANYYCQQWRSYPLTFGQGTKLEIKGPEQKLISEEDLNSAVDHHHHHH
EC50, 51Cr-release lysis of MOLM-13 by UniCAR T cells, e:t 1:1, 24 h; bispecific TM [1]: 2.9 pmol
EC50, 51Cr-release lysis of OCI-AML3 by UniCAR T cells, e:t 1:1, 24 h; bispecific TM [1]: 11.7 pmol
EC50, 51Cr-release lysis of MOLM-13 by UniCAR T cells, e:t 1:1, 24 h; bispecific TM [2]: 2.9 pmol
EC50, 51Cr-release lysis of OCI-AML3 by UniCAR T cells, e:t 1:1, 24 h; bispecific TM [2]: 11.7 pmol

B2: target module specific for CD123 (scFv)
scFv: DAAQPAEVQLQQSGPELVKPGASVKMSCKASGYTFTDYYMKWVKQSHGKSLEWIGDIIPSNGATFYNQKFKGKATLTVDRSSSTAYMHLNSLTSEDSAVYYCTRSHLLRASWFAYWGQGTLVTVSAASGGGGSGGGGSGGGGSDFVMTQSPSSLTVTAGEKVTMSCKSSQSLLNSGNQKNYLTWYLQKPGQPPKLLIYWASTRESGVPDRFTGSGSGTDFTLTISSVQAEDLAVYYCQNDYSYPYTFGGGTKLEIKGGGGSAAAKPLPEVTDEYARGGPEQKLISEEDLNSAVDHHHHHH
EC50, 51Cr-release lysis of MOLM-13 by UniCAR T cells, e:t 1:1, 24 h; combination of αCD33 TM + αCD123 TM [1]: 70.2 pmol
EC50, 51Cr-release lysis of OCI-AML3 by UniCAR T cells, e:t 1:1, 24 h; combination of αCD33 TM + αCD123 TM [1]: 80.2 pmol
EC50, lysis of MOLM-13 by UniCAR T cells, e:t 1:1 [1]: 45 pmol

B3: target module specific for CD33 (scFv)
scFv: DAAQPAGSDIVLTQSPASLAVSPGQRATITCTASSSVNYIHWYQQKPGQPPKLLIYDTSKVASGVPARFSGSGSGTDFTLTINPVEANDTANYYCQQWRSYPLTFGQGTKLEIKGGGGSGGGGSGASGAGGGGSGGGGSQVQLVQSGAEVKKPGASVKVSCKASGYTFTDYVVHWVRQAPGQGLEWMGYINPYNDGTKYNEKFKGRVTMTRDTSISTAYMELSRLRSDDTAVYYCARDYRYEVYGMDYWGQGTLVTVSSGGGGSAAAKPLPEVTDEYARGGPEQKLISEEDLNSAVDHHHHHH
EC50, 51Cr-release lysis of MOLM-13 by UniCAR T cells, e:t 1:1, 24 h; combination of αCD33 TM + αCD123 TM [2]: 70.2 pmol
EC50, 51Cr-release lysis of OCI-AML3 by UniCAR T cells, e:t 1:1, 24 h; combination of αCD33 TM + αCD123 TM [2]: 80.2 pmol
EC50, lysis of MOLM-13 by UniCAR T cells, e:t 1:1 [2]: 137 pmol

Other lines, results leading:

Half maximal effective dosis (EC50), 51Cr-release lysis of PC3 cells expressing PSCA by UniCAR T cells, e:t 5:1 [3]: ~12 pmol
B4: target module specific for PSCA (scFv)
scFv: DAAQPAGSDIQMTQSPSSLSASVGDRVTITCGTSQDINNYLNWYQQKPGKVPKLLIYYTSRLHSGVPSRFSGSGSGTDFTLTISSLQPEDVATYYCQQSKTLPWTFGGGTQLTVLGGGGSGGGGSGASAAGGGGSGGGGSQVQLVESGGGLVKPGGSLRLSCAASGFTFSSYSMSWIRQAPGKGLEWVSYINDSGGSTFYPDTVKGRFTISRDNAKNSLYLQMNSLRAEDTAVYYCARRMYYGNSHWHFDVWGQGTTVTVSSGGGGSAAAKPLPEVTDEYARGGPEQKLISEEDLNSAVDHHHHHH

Half maximal effective dosis (EC50), 51Cr-release lysis of PC3 cells expressing PSMA by UniCAR T cells, e:t 5:1 [4]: ~12 pmol
B5: target module specific for PSMA (scFv)
scFv: DAAQPAEVQLQQSGPELVKPGTSVRISCKTSGYTFTEYTIHWVKQSHGKSLEWIGNINPNNGGTTYNQKFEDKATLTVDKSSSTAYMELRSLTSEDSAVYYCAAGWNFDYWGQGTTVTVSSGGGGSGGGGSGGGGSDIVMTQSHKFMSTSVGDRVSIICKASQDVGTAVDWYQQKPGQSPKLLIYWASTRHTGVPDRFTGSGSGTDFTLTITNVQSEDLADYFCQQYNSYPLTFGAGTMLDLKAAAKPLPEVTDEYARGGPEQKLISEEDLNSAVDHHHHHH
